From paper PMC9026278

Assays:
Test in all cases: SPR
[1] = target: CH2-4.10 N299A aglycosylated anti-mesothelin human IgG1 antibody (human)
[2] = target: CH2-4.15 N297A aglycosylated anti-mesothelin human IgG1 antibody (human)
[3] = target: CH2-4.16 N298A aglycosylated anti-mesothelin human IgG1 antibody (human)
[4] = target: CH2-4.16 N298A-tubulysin (MSLN, huG1)
[5] = target: CH2-4.19 N301A aglycosylated anti-mesothelin human IgG1 antibody (human)
[6] = target: CH2-4.20 N300A aglycosylated anti-mesothelin human IgG1 antibody (human)
[7] = target: N297A aglycosylated anti-mesothelin human IgG1 antibody (human)

## hCD64 (from UniProt P12314 16-374) (receptor)
[1]
  fold weaker binding than the corresponding glycosylated species: 100 fold
[2]
  fold weaker binding than the corresponding glycosylated species: 100 fold
[3]
  fold weaker binding than the corresponding glycosylated species: 100 fold
[4]
  Kd: 172 nM
[5]
  fold weaker binding than the corresponding glycosylated species: 100 fold
[6]
  fold weaker binding than the corresponding glycosylated species: 100 fold
[7]
  fold weaker binding than the corresponding glycosylated species: 100 fold
